In paper PMC10614612, “Identification of a carbonic anhydrase–Rubisco complex within the alpha-carboxysome” (Proceedings of the National Academy of Sciences of the …, 2023):

T1: CbbS, Rubisco small subunit (as in Rubisco-strep) (H. neapolitanus, UniProt P45686 1-110)
T1 construct: Rubisco small subunit CbbS, H. neapolitanus; residues M4-N110 modelled; Subunit of m2, written on its own for the contacts in the cryo-EM structure; source: E. coli, coexpressed with GroEL/ES, purified as Rubisco-strep
T1 sequence: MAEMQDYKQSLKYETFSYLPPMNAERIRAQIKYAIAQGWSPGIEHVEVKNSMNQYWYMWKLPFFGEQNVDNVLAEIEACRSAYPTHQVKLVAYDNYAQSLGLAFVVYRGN

T2: NTD_(1-53)-sfGFP R23A (H. neapolitanus, UniProt O85042 1-53, R23A)
T2 construct: first 53 residues of CsoSCA, H. neapolitanus, with R23A; source: E. coli, purified (His-tag purification); not shown: sfGFP, C-terminal, kept; His tag, C-terminal, kept
T2 sequence (looked up): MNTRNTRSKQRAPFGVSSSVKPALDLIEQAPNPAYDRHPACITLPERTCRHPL

T3: NTD_(1-53)-sfGFP P22A (H. neapolitanus, UniProt O85042 1-53, P22A)
T3 construct: first 53 residues of CsoSCA, H. neapolitanus, with P22A; source: E. coli, purified (His-tag purification); not shown: sfGFP, C-terminal, kept; His tag, C-terminal, kept
T3 sequence (looked up): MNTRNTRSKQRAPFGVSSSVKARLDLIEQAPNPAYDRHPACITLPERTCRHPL

B1: Rubisco-strep (H. neapolitanus CbbL8S8) (complex)
chain 1: MAVKKYSAGVKEYRQTYWMPEYTPLDSDILACFKITPQPGVDREEAAAAVAAESSTGTWTTVWTDLLTDMDYYKGRAYRIEDVPGDDAAFYAFIAYPIDLFEEGSVVNVFTSLVGNVFGFKAVRGLRLEDVRFPLAYVKTCGGPPHGIQVERDKMNKYGRPLLGCTIKPKLGLSAKNYGRAVYECLRGGLDFTKDDENINSQPFMRWRDRFLFVQDATETAEAQTGERKGHYLNVTAPTPEEMYKRAEFAKEIGAPIIMHDYITGGFTANTGLAKWCQDNGVLLHIHRAMHAVIDRNPNHGIHFRVLTKILRLSGGDHLHTGTVVGKLEGDRASTLGWIDLLRESFIPEDRSRGIFFDQDWGSMPGVFAVASGGIHVWHMPALVNIFGDDSVLQFGGGTLGHPWGNAAGAAANRVALEACVEARNQGRDIEKEGKEILTAAAQHSPELKIAMETWKEIKFEFDTVDKLDTQNR
chain 2: MAEMQDYKQSLKYETFSYLPPMNAERIRAQIKYAIAQGWSPGIEHVEVKNSMNQYWYMWKLPFFGEQNVDNVLAEIEACRSAYPTHQVKLVAYDNYAQSLGLAFVVYRGN
notes: Rubisco large subunit CbbL, H. neapolitanus, alpha-carboxysomal Form IA; residues V3-E457 modelled in the cryo-EM maps; Rubisco small subunit CbbS, H. neapolitanus; residues M4-N110 modelled in the cryo-EM maps; Printed both as 'strep-Rubisco' and 'Rubisco-strep'; plasmid in Dataset S4; also called strep-Rubisco; WT; source: E. coli, coexpressed with GroEL/ES, purified (Strep-tag purification); …
B2: NTD_(1-53)-sfGFP (domain or fragment, H. neapolitanus, UniProt O85042 1-53, looked up)
chain: MNTRNTRSKQRAPFGVSSSVKPRLDLIEQAPNPAYDRHPACITLPERTCRHPL
notes: first 53 residues of CsoSCA (unstructured N-terminal peptide), H. neapolitanus; Fused to monomeric superfolder GFP; Linker, if any, is in Dataset S4; also called NTD_(1-53)-sfGFP-His; source: E. coli, purified (His-tag purification); not shown: sfGFP, C-terminal, kept; His tag, C-terminal, kept

Tests used:
[1] = target: T1, CbbS, Rubisco small subunit (as in …); experiment: cryo-EM structure; 0.5 μM Rubisco-strep with 0.5 mM NTD_(1-50) peptide; 25 mM Tris pH 7.5, 80 mM NaCl, 2% glycerol; two reconstructions (State-1, State-2), D4 symmetry; conditions: both partners purified
[2] = target: B1; experiment: as above; conditions: both partners purified
NTD_(1-53)-sfGFP R23A = target: T2, NTD_(1-53)-sfGFP R23A; experiment: BLI; 5 μg/mL NTD_(1-53)-sfGFP-His (or point mutant) immobilised on Ni-NTA biosensors; strep-Rubisco (WT 250–3.9 nM, or mutant) as prey; 25 mM Tris pH 7.5, 70 mM NaCl, 0.01% Triton X100; 1:2 (Bivalent Analyte) binding model; conditions: both partners purified
NTD_(1-53)-sfGFP = target: B2; experiment: as above; conditions: both partners purified
NTD_(1-53)-sfGFP P22A = target: T3, NTD_(1-53)-sfGFP P22A; experiment: as above; conditions: both partners purified
[3] = target: the molecule itself; experiment: cryo-EM structure; 0.5 μM Rubisco-strep with 0.5 mM NTD_(1-50) peptide; 25 mM Tris pH 7.5, 80 mM NaCl, 2% glycerol; two reconstructions (State-1, State-2), D4 symmetry
[4] = target: B1; experiment: SEC; NTD_(1-53)-sfGFP and Rubisco-strep mixed 32:1 (NTD_(1-53)-sfGFP:CbbL8S8); Superose 6 Increase 3.2/300; 20 mM Tris pH 7.5, 150 mM NaCl, 4 °C; A280 and A485; conditions: both partners purified
[5] = target: T4, Rubisco-strep (CbbL8S8) from Halothiobacillus neapolitanus (H. neapolitanus, UniProt O85040 1-473; P45686 1-110); experiment: SEC; Superose 6 Increase 3.2/300, 20 mM Tris pH 7.5, 150 mM NaCl, 4 °C; NTD1-53-sfGFP:CbbL8S8 mixed 32:1; A280 and A485 monitored; conditions: both partners purified
T4 construct: Rubisco large subunit CbbL, Halothiobacillus neapolitanus; Rubisco small subunit CbbS, Halothiobacillus neapolitanus; also called strep-Rubisco; source: E. coli (BL21-A1 or BW25113, see Dataset S4), co-expressed with GroEL/ES, purified (StrepTrap); copies: 8 + 8

Row | Binder | KD2 (second set of the 1:2 fit) (NTD_(1-53)-sfGFP) | KD (first set of the 1:2 fit) (NTD_(1-53)-sfGFP) | koff2 (second set of the 1:2 fit) (NTD_(1-53)-sfGFP) | koff (first set of the 1:2 fit) (NTD_(1-53)-sfGFP) | kon2 (second set of the 1:2 fit) (NTD_(1-53)-sfGFP) | kon (first set of the 1:2 fit) (NTD_(1-53)-sfGFP) | other results
1 | MNTRNTRSKQRAPFGVSSSVKPRLDLIEQAPNPAYDRHPACITLPERTCR (peptide, UniProt O85042 1-50, looked up, first 50 residues of CsoSCA, H. neapolitanus; also called NTD peptide; N50 peptide) [NTD_(1-50) peptide (CsoSCA residue 1-50)] | – | – | – | – | – | – | binding result [1]: binds; stoichiometry N [2]: 8
2 | B1 | 80 ± 1 nM | 33 ± 0.4 nM | 0.11 s⁻¹ | 0.0069 s⁻¹ | 1.4e+06 M⁻¹ s⁻¹ | 210000 M⁻¹ s⁻¹ | KD2 (second set of the 1:2 fit) (NTD_(1-53)-sfGFP R23A): 130 ± 2 nM; KD (first set of the 1:2 fit) (NTD_(1-53)-sfGFP R23A): 17 ± 0.2 nM; koff2 (second set of the 1:2 fit) (NTD_(1-53)-sfGFP R23A): 0.061 s⁻¹; koff (first set of the 1:2 fit) (NTD_(1-53)-sfGFP R23A): 0.0033 s⁻¹; kon2 (second set of the 1:2 fit) (NTD_(1-53)-sfGFP R23A): 460000 M⁻¹ s⁻¹; kon (first set of the 1:2 fit) (NTD_(1-53)-sfGFP R23A): 190000 M⁻¹ s⁻¹; KD2 (second set of the 1:2 fit) (NTD_(1-53)-sfGFP P22A): 6.5 ± 0.4 µM; KD (first set of the 1:2 fit) (NTD_(1-53)-sfGFP P22A): 18000 nM; koff2 (second set of the 1:2 fit) (NTD_(1-53)-sfGFP P22A): 0.44 s⁻¹; koff (first set of the 1:2 fit) (NTD_(1-53)-sfGFP P22A): 0.044 s⁻¹; kon2 (second set of the 1:2 fit) (NTD_(1-53)-sfGFP P22A): 68000 M⁻¹ s⁻¹; kon (first set of the 1:2 fit) (NTD_(1-53)-sfGFP P22A): 2400 M⁻¹ s⁻¹
3 | CbbL, Rubisco large subunit (as in Rubisco-strep) (natural protein, H. neapolitanus, Rubisco large subunit CbbL, H. neapolitanus; residues V3-E457 modelled; Subunit of m2, written on its own for the contacts in the cryo-EM structure; also called CbbLA; CbbLB; source: E. coli, coexpressed with GroEL/ES, purified as Rubisco-strep) MAVKKYSAGVKEYRQTYWMPEYTPLDSDILACFKITPQPGVDREEAAAAVAAESSTGTWTTVWTDLLTDMDYYKGRAYRIEDVPGDDAAFYAFIAYPIDLFEEGSVVNVFTSLVGNVFGFKAVRGLRLEDVRFPLAYVKTCGGPPHGIQVERDKMNKYGRPLLGCTIKPKLGLSAKNYGRAVYECLRGGLDFTKDDENINSQPFMRWRDRFLFVQDATETAEAQTGERKGHYLNVTAPTPEEMYKRAEFAKEIGAPIIMHDYITGGFTANTGLAKWCQDNGVLLHIHRAMHAVIDRNPNHGIHFRVLTKILRLSGGDHLHTGTVVGKLEGDRASTLGWIDLLRESFIPEDRSRGIFFDQDWGSMPGVFAVASGGIHVWHMPALVNIFGDDSVLQFGGGTLGHPWGNAAGAAANRVALEACVEARNQGRDIEKEGKEILTAAAQHSPELKIAMETWKEIKFEFDTVDKLDTQNR | – | – | – | – | – | – | binding result [3]: binds
4 | Rubisco Y72A (complex, H. neapolitanus, Rubisco large subunit CbbL, H. neapolitanus, with Y72A (the text places Y72 on CbbL); Rubisco small subunit CbbS, H. neapolitanus; Plasmid in Dataset S4; source: E. coli, coexpressed with GroEL/ES, purified (Strep-tag purification); copies: 8 + 8) chain 1: MAVKKYSAGVKEYRQTYWMPEYTPLDSDILACFKITPQPGVDREEAAAAVAAESSTGTWTTVWTDLLTDMDAYKGRAYRIEDVPGDDAAFYAFIAYPIDLFEEGSVVNVFTSLVGNVFGFKAVRGLRLEDVRFPLAYVKTCGGPPHGIQVERDKMNKYGRPLLGCTIKPKLGLSAKNYGRAVYECLRGGLDFTKDDENINSQPFMRWRDRFLFVQDATETAEAQTGERKGHYLNVTAPTPEEMYKRAEFAKEIGAPIIMHDYITGGFTANTGLAKWCQDNGVLLHIHRAMHAVIDRNPNHGIHFRVLTKILRLSGGDHLHTGTVVGKLEGDRASTLGWIDLLRESFIPEDRSRGIFFDQDWGSMPGVFAVASGGIHVWHMPALVNIFGDDSVLQFGGGTLGHPWGNAAGAAANRVALEACVEARNQGRDIEKEGKEILTAAAQHSPELKIAMETWKEIKFEFDTVDKLDTQNR chain 2: MAEMQDYKQSLKYETFSYLPPMNAERIRAQIKYAIAQGWSPGIEHVEVKNSMNQYWYMWKLPFFGEQNVDNVLAEIEACRSAYPTHQVKLVAYDNYAQSLGLAFVVYRGN | 820 ± 11 nM | 320 ± 6 nM | 0.15 s⁻¹ | 0.0089 s⁻¹ | 180000 M⁻¹ s⁻¹ | 28000 M⁻¹ s⁻¹ | –
5 | B2 | – | – | – | – | – | – | binding result [4]: binds
6 | Rubisco D99A (complex, H. neapolitanus, Rubisco large subunit CbbL, H. neapolitanus, with D99A (the text places D99 on CbbL); Rubisco small subunit CbbS, H. neapolitanus; Plasmid in Dataset S4; source: E. coli, coexpressed with GroEL/ES, purified (Strep-tag purification); copies: 8 + 8) chain 1: MAVKKYSAGVKEYRQTYWMPEYTPLDSDILACFKITPQPGVDREEAAAAVAAESSTGTWTTVWTDLLTDMDYYKGRAYRIEDVPGDDAAFYAFIAYPIALFEEGSVVNVFTSLVGNVFGFKAVRGLRLEDVRFPLAYVKTCGGPPHGIQVERDKMNKYGRPLLGCTIKPKLGLSAKNYGRAVYECLRGGLDFTKDDENINSQPFMRWRDRFLFVQDATETAEAQTGERKGHYLNVTAPTPEEMYKRAEFAKEIGAPIIMHDYITGGFTANTGLAKWCQDNGVLLHIHRAMHAVIDRNPNHGIHFRVLTKILRLSGGDHLHTGTVVGKLEGDRASTLGWIDLLRESFIPEDRSRGIFFDQDWGSMPGVFAVASGGIHVWHMPALVNIFGDDSVLQFGGGTLGHPWGNAAGAAANRVALEACVEARNQGRDIEKEGKEILTAAAQHSPELKIAMETWKEIKFEFDTVDKLDTQNR chain 2: MAEMQDYKQSLKYETFSYLPPMNAERIRAQIKYAIAQGWSPGIEHVEVKNSMNQYWYMWKLPFFGEQNVDNVLAEIEACRSAYPTHQVKLVAYDNYAQSLGLAFVVYRGN | 1100 ± 14 nM | 400 ± 10 nM | 0.15 s⁻¹ | 0.0059 s⁻¹ | 130000 M⁻¹ s⁻¹ | 15000 M⁻¹ s⁻¹ | –
7 | NTD1-53-sfGFP-His, first 53 residues of CsoSCA fused to superfolder GFP (domain or fragment, H. neapolitanus, UniProt O85042 1-53, looked up, first 53 residues of CsoSCA, Halothiobacillus neapolitanus; source: E. coli (see Dataset S4), purified (His-tag purification)) MNTRNTRSKQRAPFGVSSSVKPRLDLIEQAPNPAYDRHPACITLPERTCRHPL | – | – | – | – | – | – | binding result [5]: binds
